Data taken from publication PMC5526998, “Structural analysis of the regulatory mechanism of MarR protein Rv2887 in M. tuberculosis” (Scientific Reports, 2017).

Biological target: the molecule itself
Experiment: crystal structure

B1: MarR family protein Rv2887 (natural protein)
chain: MGLADDAPLGYLLYRVGAVLRPEVSAALSPLGLTLPEFVCLRMLSQSPGLSSAELARHASVTPQAMNTVLRKLEDAGAVARPASVSSGRSLPATLTARGRALAKRAEAVVRAADARVLARLTAPQQREFKRMLEKLGSD
notes: also called MarR-like protein Rv2887; apo-Rv2887
**Q.** Does B1 bind?
**A.** Result: binds
